According to article PMC7935935, “Conservation of the glycogen metabolism pathway underlines a pivotal function of storage polysaccharides in Chlamydiae” (Communications Biology, 2021):

Legend:
[1] = biological target: T1, GlgA–GlgB-WC (Waddlia chondrophila, UniProt D6YUJ8); test: […]-glucosyl incorporation into glycogen; zymogram; format: cell-based; details: glycogen as acceptor, 30 °C; glycogen synthase domain; labelled compound
T1 construct: gene wcw_0437; natural GlgA-GlgB gene fusion, his-tagged, modified pET15b, E. coli BW25113 delta-glgA; crude extract on zymogram
T1 sequence (D6YUJ8 1-1463): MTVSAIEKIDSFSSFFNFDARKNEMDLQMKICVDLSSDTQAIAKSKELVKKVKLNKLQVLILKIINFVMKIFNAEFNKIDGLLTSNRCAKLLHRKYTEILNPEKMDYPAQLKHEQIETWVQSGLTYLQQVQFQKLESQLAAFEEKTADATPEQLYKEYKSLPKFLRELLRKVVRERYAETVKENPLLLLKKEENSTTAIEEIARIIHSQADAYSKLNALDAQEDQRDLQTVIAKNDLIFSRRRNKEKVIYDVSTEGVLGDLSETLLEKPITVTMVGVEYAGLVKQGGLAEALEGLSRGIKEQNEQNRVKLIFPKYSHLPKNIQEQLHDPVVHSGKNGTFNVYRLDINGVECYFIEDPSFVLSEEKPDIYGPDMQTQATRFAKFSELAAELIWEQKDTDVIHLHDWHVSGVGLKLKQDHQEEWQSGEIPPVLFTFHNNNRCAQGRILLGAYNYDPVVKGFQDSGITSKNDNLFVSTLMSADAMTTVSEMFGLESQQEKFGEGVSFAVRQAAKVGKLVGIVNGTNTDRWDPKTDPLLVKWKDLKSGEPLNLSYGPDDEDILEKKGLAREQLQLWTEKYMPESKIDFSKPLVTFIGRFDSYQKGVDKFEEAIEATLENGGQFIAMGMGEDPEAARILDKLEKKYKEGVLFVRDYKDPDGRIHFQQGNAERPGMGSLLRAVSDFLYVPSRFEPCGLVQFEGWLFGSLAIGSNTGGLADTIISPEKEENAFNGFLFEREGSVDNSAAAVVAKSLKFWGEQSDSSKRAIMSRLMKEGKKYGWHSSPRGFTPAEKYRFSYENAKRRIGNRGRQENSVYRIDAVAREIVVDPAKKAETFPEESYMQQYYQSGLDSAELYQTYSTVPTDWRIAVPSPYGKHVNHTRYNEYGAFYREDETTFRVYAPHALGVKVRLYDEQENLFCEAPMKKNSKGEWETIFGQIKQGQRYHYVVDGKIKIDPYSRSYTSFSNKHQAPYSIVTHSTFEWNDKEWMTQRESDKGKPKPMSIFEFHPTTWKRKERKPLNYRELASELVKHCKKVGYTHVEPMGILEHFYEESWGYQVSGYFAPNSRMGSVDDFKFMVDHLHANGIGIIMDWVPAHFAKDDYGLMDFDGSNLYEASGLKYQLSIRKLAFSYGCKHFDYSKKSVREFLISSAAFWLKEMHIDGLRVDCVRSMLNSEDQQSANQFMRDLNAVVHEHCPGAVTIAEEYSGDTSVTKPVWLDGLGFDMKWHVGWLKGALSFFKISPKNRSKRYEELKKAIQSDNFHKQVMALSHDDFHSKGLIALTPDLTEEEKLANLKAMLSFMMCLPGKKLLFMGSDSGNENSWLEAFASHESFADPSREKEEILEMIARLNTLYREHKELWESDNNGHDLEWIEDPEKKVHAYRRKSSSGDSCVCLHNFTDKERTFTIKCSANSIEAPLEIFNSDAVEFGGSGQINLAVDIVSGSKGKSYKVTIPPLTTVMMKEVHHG

[2] = biological target: T2, GlgE-WC (Waddlia chondrophila, UniProt D6YT22); test: maltosyl transfer, FACE capillary electrophoresis and Pi release; format: biochemical; details: 30 °C
T2 sequence (D6YT22 1-649): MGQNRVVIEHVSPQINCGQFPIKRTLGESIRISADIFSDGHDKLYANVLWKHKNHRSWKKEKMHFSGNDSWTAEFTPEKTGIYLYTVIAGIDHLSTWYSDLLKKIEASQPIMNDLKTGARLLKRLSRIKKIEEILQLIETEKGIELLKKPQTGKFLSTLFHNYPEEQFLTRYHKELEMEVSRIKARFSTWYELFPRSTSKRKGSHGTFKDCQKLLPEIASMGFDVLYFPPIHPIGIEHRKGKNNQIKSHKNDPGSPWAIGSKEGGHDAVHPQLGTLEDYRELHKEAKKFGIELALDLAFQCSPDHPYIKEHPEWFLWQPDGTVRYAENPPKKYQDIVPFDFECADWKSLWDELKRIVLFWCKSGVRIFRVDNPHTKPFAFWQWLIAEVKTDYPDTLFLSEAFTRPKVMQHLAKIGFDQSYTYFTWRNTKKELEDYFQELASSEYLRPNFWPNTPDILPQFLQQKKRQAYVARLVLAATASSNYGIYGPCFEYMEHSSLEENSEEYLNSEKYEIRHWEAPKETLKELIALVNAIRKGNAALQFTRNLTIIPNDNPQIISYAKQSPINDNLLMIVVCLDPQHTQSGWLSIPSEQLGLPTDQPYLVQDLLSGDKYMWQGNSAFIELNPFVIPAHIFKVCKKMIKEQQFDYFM

[3] = test system: O=P(O)(O)O[C@H]1O[C@H](CO)[C@@H](O[C@H]2O[C@H](CO)[C@@H](O)[C@H](O)[C@H]2O)[C@H](O)[C@H]1O; test: purified protein; details: 10 mM maltoheptaose as acceptor per Fig. 5 legend (b24 text assigns the acceptors the other way round), pH 6.8, 30 °C, positive cooperativity
[4] = test system: OC[C@H]1O[C@H](O[C@H]2O[C@H](CO)[C@@H](O)[C@H](O)[C@H]2O)[C@H](O)[C@@H](O)[C@@H]1O; test: purified protein; details: TreS domain, 1 mM MnCl2, no ATP, 125 mM imidazole pH 8, 150 mM NaCl, 30 °C
[5] = biological target: bifunctional TreS-Mak of Estrella lausannensis (trehalose synthase fused to maltokinase) (Estrella lausannensis); test: SEC; Superose 6 10/300 GL, PBS (10 mM orthophosphate, 140 mM NaCl, pH 7.4), 4 °C, 0.3 mL/min; apparent molecular weight against standard proteins
[6] = biological target: the molecule itself; test: as above

## Nc1ncnc2c1ncn2[C@@H]1O[C@H](COP(=O)(O)OP(=O)(O)O[C@H]2O[C@H](CO)[C@@H](O)[C@H](O)[C@H]2O)[C@@H](O)[C@H]1O [ADP-glc, ADP-glucose]
[1]
  14C-glucosyl incorporation into glycogen; zymogram: is functional but highly specific for ADP-glucose

## OC[C@H]1O[C@H](O[C@H]2[C@H](O)[C@@H](O)[C@@H](O[C@H]3[C@H](O)[C@@H](O)[C@@H](O[C@H]4[C@H](O)[C@@H](O)[C@@H](O[C@H]5[C@H](O)[C@@H](O)[C@@H](O[C@H]6[C@H](O)[C@@H](O)[C@@H](O[C@H]7[C@H](O)[C@@H](O)C(O)O[C@@H]7CO)O[C@@H]6CO)O[C@@H]5CO)O[C@@H]4CO)O[C@@H]3CO)O[C@@H]2CO)[C@H](O)[C@@H](O)[C@@H]1O (stereo partly shown) [DP7, maltoheptaose]
[2]; acceptor with 1.6 mM M1P, also disproportionated without M1P
  maltosyl transfer, FACE capillary electrophoresis and Pi release: GlgE activities harbor an α-1,4-glucanotransferase activity exclusively with glucans composed of six or seven

## O=P(O)(O)O[C@H]1O[C@H](CO)[C@@H](O[C@H]2O[C@H](CO)[C@@H](O)[C@H](O)[C@H]2O)[C@H](O)[C@H]1O [M1P, maltose-1-phosphate]
[2]; 5 mM malto-oligosaccharide acceptors, 1.6 mM M1P
  maltosyl transfer, FACE capillary electrophoresis and Pi release: both GlgE activities enable the transfer the maltosyl moiety of M1P onto the glucan primer

## GlgE-EL (Estrella lausannensis)
[3]
  K0.5: 0.33 ± 0.02 mM

## TreS-Mak of Estrella lausannensis (Estrella lausannensis)
[4]
  Km: 42.3 ± 2.7 mM

## bifunctional TreS-Mak of Estrella lausannensis (trehalose synthase fused to maltokinase) (enzyme)
[5]
  stoichiometry N: 2

B1: GlgE of Estrella lausannensis (maltosyl-1-phosphate transferase; α-maltose-1-phosphate: 1,4-α-D-glucan 4-α-D-maltosyltransferase) (enzyme, UniProt A0A0H5DRC6 1-675, looked up)
chain: MSVSAAEKRQLLTQVKASGSMYTNTLHSIVIQNISPKPEPFGPAKRVLLEQVEVEADIFTDPHTKLEADLIVKAPGLRKTTRIPFHPLVNDRFKAVFVPDTPGTYSFFVEAWVNPAALWQEDLRKKQEARLDLTVDLQIGAALLVEVADLLPPEESVKLLQIAKKLREQKGAEAVAFDPEIARLGRLARPKSRQGVCSQEQEVFVTRKKALFSTWYELFPRSCSGTMRHGTFNDVVAKLPRISRMGFDVLYLPPIHPIGKTKRKGKNNALTALPDDPGSPWAVGSHEGGHDAIQRELGTLADFERLVKEAESLGIEIALDIALQCSPDHPYLKEHPEWFLKRPDGTYQYAENPPKKYEDIIPFHFTEDNKDTLFREILRIFLFWMKRGVRIFRVDNPHTKPFALWEYVIGEVRKVDSGVIFLAEAFTRPKIMHHLARIGFDQSYTYFTWRNTKWELTEYLTELTKTEARNYLRPNFFVNTPDILPESLQWGGRAAFLTRLILAATLSSSYGIYGPAFEQMLSEAVPGKEDYIDSEKYEIKPWDFEKKGTISETIEIVNRIRKENPALQATGNLEFYATDNDYLLAYGKQGPQGESLLIVVNLDHYHTQSGYVTLPLMHLGIQEKEPYLVDDLLSGERYIWEGERNYIQLSPHLVPAHIFRIRPKMLRENNFDYFI
notes: GlgE (maltosyl-1-phosphate transferase) of Estrella lausannensis, glgE gene amplified from genomic DNA; monomer of 75-76 kD; Cloned in pET15b; also called GlgE-EL; source: E. coli Rosetta (DE3)
[6]
  stoichiometry N: 2
